Assay [1] deals with McjD-C547 (cys-less McjD with the native cysteine C547 only), labelled with Alexa555 and Alexa647 (Escherichia coli) (UniProt Q9X2W0). The assay is described as follows: FRET or BRET; single-molecule FRET, confocal scanning, 10 ms time resolution; labelled McjD reconstituted in biotin-DOPE proteoliposomes (protein to lipid ~1:1,000 w/w) immobilised through neutravidin on PEG-biotin coverslips; oxygen-free buffer with Trolox; FRET between the single cysteines of the two protomers.

Assay [2] addresses McjD Y64C (single cysteine in cys-less McjD), labelled with Alexa555 and Alexa647 (Escherichia coli) (UniProt Q9X2W0).
The target in assay [3] is McjD L67C (single cysteine in cys-less McjD), labelled with Alexa555 and Alexa647 (Escherichia coli) (UniProt Q9X2W0).

On to “McjD-C547 (cys-less McjD with the native cysteine C547 only), labelled with Alexa555 and Alexa647 (from UniProt Q9X2W0 1-580) (natural protein)”, for which the lifetime of the dimerized ATP-free NBD state in assay [1] is 82 ms.
Regarding GGAGHVPEYFVGIGTPISFYG [antibacterial peptide MccJ25], in assay [2], the mean apparent FRET efficiency E* between the dyes at Y64C of the two protomers (opening of the TMD), proteoliposomes, with 10 mM ATP and 200 uM MccJ25, first population (apo 0.81 & 0.60) amounted to 0.82; the mean apparent FRET efficiency E* between the dyes at Y64C of the two protomers (opening of the TMD), proteoliposomes, with 10 mM ATP and 200 uM MccJ25, second population (apo 0.81 & 0.60) came out at 0.52; the mean apparent FRET efficiency E* between the dyes at Y64C of the two protomers (opening of the periplasmic gate of the TMD), detergent, with ATP + MccJ25 (apo 1.07; ATP alone 1.01) is 0.91. For the same molecule, in assay [3], the mean apparent FRET efficiency E* between the dyes at L67C of the two protomers (opening of the TMD), proteoliposomes, with 10 mM ATP and 200 uM MccJ25 (apo 0.69) worked out at 0.51; the mean apparent FRET efficiency E* between the dyes at L67C of the two protomers (opening of the periplasmic gate of the TMD), detergent, with ATP + MccJ25 (apo 0.95; ATP alone 0.95) was 0.83.
